The values that follow come from the supplement of paper PMC10126150.

± gives the standard deviation of the averaged measurements.
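Further: ATP exposure 15 min at 22 °C before imaging.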

The data set has as its system ATP. Briefly: switch fluorescence ratio, 500 uM ATP over buffer (Cy3 cluster intensity, sum of 5 cycles each) (fold (ratio)); higher = stronger signal-on switching upon ATP binding; sequences stand for … in TCGTCGGCAGCGTCAGATGTGTATAAGAGACAGTTTTTTTTTTTTTTTTTTTTTTTTT…TC. The following applies: aptamer strand: ATP DNA aptamer (quencher-CACCTGGGGGAGTATTGCGGAGGAAGG + anchor), 100 nM annealed; ATP concentration: 500 uM. A digest of the protocol: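 After annealing to 100 nM quencher-labelled ATP aptamer, Cy3-labelled switching-strand clusters on a modified Illumina MiSeq flow-cell were imaged in selection buffer. A second image followed after 15 min with 500 uM ATP at 22 °C, and five such buffer/ATP cycles were done, each separated by NaOH stripping and re-annealing. The fluorescence ratio, averaged per switch-domain sequence, is summed target-cycle over summed buffer-cycle Cy3 intensity per cluster, with clusters outside 100-1000 RFU excluded.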
Regarding ACGGCAGGAA, the switch fluorescence ratio turned out to be 1.04 ± 0.043.
The value for GTGTTATTGA was 0.97161 ± 0.00039.
The value for TAAATAGGGA was 1.01 ± 0.03; that for TTAGCTCTA was 1.012 ± 0.0054; that for GGAGAGGGGT was 0.99 ± 0.035.
The value for GTTCGTTAGC was 0.988 ± 0.004; that for TTTTAGGATG was 0.996 ± 0.025.
Take TTTGTGGCTG: the switch fluorescence ratio came out at 0.986 ± 0.037.
As for GGAAGTCGGT, the switch fluorescence ratio stood at 0.968 ± 0.022.
The value for CGTTGTTTCT was 0.967 ± 0.024; that for ACAAGTGACG was 0.988 ± 0.026.
The value for ATAACGTTTT was 1.02 ± 0.019; that for TCTATTGGTG was 1.02 ± 0.069.
With AGTTAGGCAA, the switch fluorescence ratio was determined as 1.01 ± 0.014.
The value for TAAGGGGTAT was 0.985 ± 0.032; that for GCAGTACTTT was 1.5 ± 0.12; that for CTTGGGATTT was 0.98 ± 0.013.
The value for TTGCGTTGTG was 0.992 ± 0.041; that for TGAAATATTG was 0.996 ± 0.022; that for CGTGCAAAGA was 1.77 ± 1.1.
The value for AAAAGTCTGA was 1.01 ± 0.041; that for GAAGATTTGC was 0.973 ± 0.012; that for CGTGACCGGG was 0.996 ± 0.016.
Turning to CTGGTTGGGA, the switch fluorescence ratio came to 0.992 ± 0.013.
The value for TTCAAATGCT was 0.998 ± 0.013; that for ATAAGGAGGG was 1 ± 0.01; that for TCACGTAGGC was 1.04 ± 0.053.
The value for AGTTGGGTGT was 1.01 ± 0.013; that for TGGCCACTT was 0.986 ± 0.023.
With ATCGTAATTT, the switch fluorescence ratio is 0.971 ± 0.062.
The value for GGGTCTATCG was 0.989 ± 0.034; that for GGGATGTTTT was 0.991 ± 0.012; that for GGGGGGTGG was 0.9912 ± 0.0055.
The value for TAGCACCATT was 1.1 ± 0.072.
The value for TGTCGTAGGA was 1.006 ± 0.0035.
For CCTCGCTGAG, the switch fluorescence ratio came to 3.48 ± 0.98.
Take TTCAAAGTCA: the switch fluorescence ratio was 1.02.
In the case of TGGGTGGTTT, the switch fluorescence ratio was 1.02 ± 0.019.
The value for TTTGGTAATT was 1.03 ± 0.034.
Consider TTTTGATCTT, for which the switch fluorescence ratio is 0.991 ± 0.012.
The value for TAAAACCGGT was 1.02 ± 0.018; that for ACCCGTTGTG was 1.05 ± 0.03.
The value for GTTTAACTAT was 1.015 ± 0.0038; that for GAGTTGTGCG was 0.9969 ± 0.001.
The value for TTTTGCAGCT was 1 ± 0.019.
Consider TAAAGGCGGT, for which the switch fluorescence ratio amounted to 0.983 ± 0.042.
As for GGGACACGGC, the switch fluorescence ratio was determined as 0.996 ± 0.059.
Take TTTGGGATAC: the switch fluorescence ratio worked out at 1.24 ± 0.28.
The value for AGGTGGGTG was 1.04 ± 0.1.
Consider ACCGCGGTGT, for which the switch fluorescence ratio turned out to be 1.007 ± 0.0052.
The value for TTGATTCAGC was 1.01 ± 0.012; that for GGTTAATCGT was 0.98228 ± 0.00062.
Consider CCGTGGCGCA, for which the switch fluorescence ratio came out at 1.88 ± 0.21.
The value for GAGGTGCAGG was 0.9932 ± 0.008.
The value for TTTCGTGGGT was 0.9863 ± 0.006; that for ATCGTTTTTT was 0.973 ± 0.018; that for GCGTTGGGTC was 1.02 ± 0.014.
The value for GATTATATCT was 0.981 ± 0.033; that for CTTAGTGAAA was 0.988 ± 0.029.
On to AGGGATTTGT, for which the switch fluorescence ratio amounted to 1.028 ± 0.003.
The value for ATTAAAGTTT was 1.04 ± 0.034; that for TTGGGTATAG was 1.02 ± 0.028; that for ATGGGGATGA was 0.9776 ± 0.004.
The value for TTCGCCTAAG was 0.9658 ± 0.0067; that for TTTAGGAAGG was 1.017 ± 0.01; that for TGCAGAGGGC was 1.03 ± 0.02.
The value for TTTTCAGGAA was 1.018 ± 0.0092.
Turning to GGGGGTTAGT, the switch fluorescence ratio amounted to 1.01 ± 0.014.
The value for TAAGATGATC was 0.988 ± 0.048.
The value for AGGTGGAAAC was 1.01 ± 0.048.
The value for ATGGGTTTAA was 0.961 ± 0.063.
As to GCAAGGAGCG, the switch fluorescence ratio was 1.03 ± 0.039.
As for ATTGTAAAGC, the switch fluorescence ratio is 0.9935 ± 0.0083.
In the case of ATTTCAATTA, the switch fluorescence ratio was 1.01 ± 0.065.
The value for TTAAAGGAGG was 1.02 ± 0.044.
The value for GTGTGACTCG was 1.03 ± 0.062; that for GTCAAGGGGA was 1.02 ± 0.015; that for TGGCGGCTGG was 0.996 ± 0.018.
For the sequence ATGGCAAAGA, the switch fluorescence ratio came to 0.9828 ± 0.0096.
